Assay results reported in article PMC10200994, “A family-wide assessment of latent STAT transcription factor interactions reveals divergent dimer repertoires” (The Journal of Biological Chemistry, 2023).

B1: STAT1 (unphosphorylated, wild-type), fluorophore fusion (natural protein, UniProt P42224 1-750, looked up)
chain: MSQWYELQQLDSKFLEQVHQLYDDSFPMEIRQYLAQWLEKQDWEHAANDVSFATIRFHDLLSQLDDQYSRFSLENNFLLQHNIRKSKRNLQDNFQEDPIQMSMIIYSCLKEERKILENAQRFNQAQSGNIQSTVMLDKQKELDSKVRNVKDKVMCIEHEIKSLEDLQDEYDFKCKTLQNREHETNGVAKSDQKQEQLLLKKMYLMLDNKRKEVVHKIIELLNVTELTQNALINDELVEWKRRQQSACIGGPPNACLDQLQNWFTIVAESLQQVRQQLKKLEELEQKYTYEHDPITKNKQVLWDRTFSLFQQLIQSSFVVERQPCMPTHPQRPLVLKTGVQFTVKLRLLVKLQELNYNLKVKVLFDKDVNERNTVKGFRKFNILGTHTKVMNMEESTNGSLAAEFRHLQLKEQKNAGTRTNEGPLIVTEELHSLSFETQLCQPGLVIDLETTSLPVVVISNVSQLPSGWASILWYNMLVAEPRNLSFFLTPPCARWAQLSEVLSWQFSSVTKRGLNVDQLNMLGEKLLGPNASPDGLIPWTRFCKENINDKNFPFWLWIESILELIKKHLLPLWNDGCIMGFISKERERALLKDQQPGTFLLRFSESSREGAITFTWVERSQNGGEPDFHAVEPYTKKELSAVTFPDIIRNYKVMAAENIPENPLKYLYPNIDKDHAFGKYYSRPKEAPEPMELDGPKGTGYIKTELISVSEVHPSRLQTTDNLLPMSPEEFDEVSRIVGSVEFDSMMNTV
notes: STAT1, full-length wild type; One molecule for bait and test copies; Three to five further heterologous residues flank the NES or NLS; cloning details only on request; also called U-STAT1; S1; source: HeLa, transiently transfected, in cells; not shown: mCherry (test copy) or mEGFP (bait copy), C-terminal, kept
B2: STAT4 (unphosphorylated, wild-type), fluorophore fusion (natural protein, UniProt Q14765 1-748, looked up)
chain: MSQWNQVQQLEIKFLEQVDQFYDDNFPMEIRHLLAQWIENQDWEAASNNETMATILLQNLLIQLDEQLGRVSKEKNLLLIHNLKRIRKVLQGKFHGNPMHVAVVISNCLREERRILAAANMPVQGPLEKSLQSSSVSERQRNVEHKVAAIKNSVQMTEQDTKYLEDLQDEFDYRYKTIQTMDQSDKNSAMVNQEVLTLQEMLNSLDFKRKEALSKMTQIIHETDLLMNTMLIEELQDWKRRQQIACIGGPLHNGLDQLQNCFTLLAESLFQLRRQLEKLEEQSTKMTYEGDPIPMQRTHMLERVTFLIYNLFKNSFVVERQPCMPTHPQRPLVLKTLIQFTVKLRLLIKLPELNYQVKVKASIDKNVSTLSNRRFVLCGTNVKAMSIEESSNGSLSVEFRHLQPKEMKSSAGGKGNEGCHMVTEELHSITFETQICLYGLTIDLETSSLPVVMISNVSQLPNAWASIIWYNVSTNDSQNLVFFNNPPPATLSQLLEVMSWQFSSYVGRGLNSDQLHMLAEKLTVQSSYSDGHLTWAKFCKEHLPGKSFTFWTWLEAILDLIKKHILPLWIDGYVMGFVSKEKERLLLKDKMPGTFLLRFSESHLGGITFTWVDHSESGEVRFHSVEPYNKGRLSALPFADILRDYKVIMAENIPENPLKYLYPDIPKDKAFGKHYSSQPCEVSRPTERGDKGYVPSVFIPISTIRSDSTEPHSPSDLLPMSPSVYAVLRENLSPTTIETAMKSPYSAE
notes: STAT4, full-length wild type; One molecule for bait and test copies; also called U-STAT4; STAT4-NES; source: HeLa, transiently transfected, in cells; not shown: mCherry (test copy) or mEGFP (bait copy), C-terminal, kept
B3: STAT5B (unphosphorylated, wild-type), fluorophore fusion (natural protein, UniProt P51692 1-787, looked up)
chain: MAVWIQAQQLQGEALHQMQALYGQHFPIEVRHYLSQWIESQAWDSVDLDNPQENIKATQLLEGLVQELQKKAEHQVGEDGFLLKIKLGHYATQLQNTYDRCPMELVRCIRHILYNEQRLVREANNGSSPAGSLADAMSQKHLQINQTFEELRLVTQDTENELKKLQQTQEYFIIQYQESLRIQAQFGPLAQLSPQERLSRETALQQKQVSLEAWLQREAQTLQQYRVELAEKHQKTLQLLRKQQTIILDDELIQWKRRQQLAGNGGPPEGSLDVLQSWCEKLAEIIWQNRQQIRRAEHLCQQLPIPGPVEEMLAEVNATITDIISALVTSTFIIEKQPPQVLKTQTKFAATVRLLVGGKLNVHMNPPQVKATIISEQQAKSLLKNENTRNDYSGEILNNCCVMEYHQATGTLSAHFRNMSLKRIKRSDRRGAESVTEEKFTILFESQFSVGGNELVFQVKTLSLPVVVIVHGSQDNNATATVLWDNAFAEPGRVPFAVPDKVLWPQLCEALNMKFKAEVQSNRGLTKENLVFLAQKLFNNSSSHLEDYSGLSVSWSQFNRENLPGRNYTFWQWFDGVMEVLKKHLKPHWNDGAILGFVNKQQAHDLLINKPDGTFLLRFSDSEIGGITIAWKFDSQERMFWNLMPFTTRDFSIRSLADRLGDLNYLIYVFPDRPKDEVYSKYYTPVPCESATAKAVDGYVKPQIKQVVPEFVNASADAGGGSATYMDQAPSPAVCPQAHYNMYPQNPDSVLDTDGDFDLEDTMDVARRVEELLGRPMDSQWIPHAQS
notes: STAT5B, full-length wild type; One molecule for bait and test copies; also called U-STAT5B; STAT5B-NES; source: HeLa, transiently transfected, in cells; not shown: mCherry (test copy) or mEGFP (bait copy), C-terminal, kept
B4: STAT5A (unphosphorylated, wild-type), fluorophore fusion (natural protein, UniProt P42229 1-794, looked up)
chain: MAGWIQAQQLQGDALRQMQVLYGQHFPIEVRHYLAQWIESQPWDAIDLDNPQDRAQATQLLEGLVQELQKKAEHQVGEDGFLLKIKLGHYATQLQKTYDRCPLELVRCIRHILYNEQRLVREANNCSSPAGILVDAMSQKHLQINQTFEELRLVTQDTENELKKLQQTQEYFIIQYQESLRIQAQFAQLAQLSPQERLSRETALQQKQVSLEAWLQREAQTLQQYRVELAEKHQKTLQLLRKQQTIILDDELIQWKRRQQLAGNGGPPEGSLDVLQSWCEKLAEIIWQNRQQIRRAEHLCQQLPIPGPVEEMLAEVNATITDIISALVTSTFIIEKQPPQVLKTQTKFAATVRLLVGGKLNVHMNPPQVKATIISEQQAKSLLKNENTRNECSGEILNNCCVMEYHQATGTLSAHFRNMSLKRIKRADRRGAESVTEEKFTVLFESQFSVGSNELVFQVKTLSLPVVVIVHGSQDHNATATVLWDNAFAEPGRVPFAVPDKVLWPQLCEALNMKFKAEVQSNRGLTKENLVFLAQKLFNNSSSHLEDYSGLSVSWSQFNRENLPGWNYTFWQWFDGVMEVLKKHHKPHWNDGAILGFVNKQQAHDLLINKPDGTFLLRFSDSEIGGITIAWKFDSPERNLWNLKPFTTRDFSIRSLADRLGDLSYLIYVFPDRPKDEVFSKYYTPVLAKAVDGYVKPQIKQVVPEFVNASADAGGSSATYMDQAPSPAVCPQAPYNMYPQNPDHVLDQDGEFDLDETMDVARHVEELLRRPMDSLDSRLSPPAGLFTSARGSLS
notes: STAT5A, full-length wild type; One molecule for bait and test copies; also called U-STAT5A; STAT5A-NES; source: HeLa, transiently transfected, in cells; not shown: mCherry (test copy) or mEGFP (bait copy), C-terminal, kept

Experiments:
Test in all cases: co-localization assay (relocalisation of a test protein by a compartment-targeted bait, fluorescence microscopy); HeLa cells co-expressing bait (STAT-NES or STAT-NLS, or wild-type STAT2 with its own export activity; green) and test protein without heterologous signal (red); no cytokine; fixed 20 h after transfection; Pearson correlation coefficient rP in cells with equimolar to 4-fold excess of bait
[1] = target: T1, STAT2 (unphosphorylated, wild-type), fluorophore fusion (UniProt P52630 1-851); conditions: partners not purified
T1 construct: STAT2, full-length wild type; used as bait through its own nuclear export activity; No heterologous NES or NLS on wild-type STAT2; also called U-STAT2; S2; source: HeLa, transiently transfected, in cells; not shown: mEGFP or mCherry, C-terminal, kept

[2] = target: the molecule itself
[3] = target: B4; conditions: partners not purified

T1 sequence (P52630 whole entry, the tested form may be a part): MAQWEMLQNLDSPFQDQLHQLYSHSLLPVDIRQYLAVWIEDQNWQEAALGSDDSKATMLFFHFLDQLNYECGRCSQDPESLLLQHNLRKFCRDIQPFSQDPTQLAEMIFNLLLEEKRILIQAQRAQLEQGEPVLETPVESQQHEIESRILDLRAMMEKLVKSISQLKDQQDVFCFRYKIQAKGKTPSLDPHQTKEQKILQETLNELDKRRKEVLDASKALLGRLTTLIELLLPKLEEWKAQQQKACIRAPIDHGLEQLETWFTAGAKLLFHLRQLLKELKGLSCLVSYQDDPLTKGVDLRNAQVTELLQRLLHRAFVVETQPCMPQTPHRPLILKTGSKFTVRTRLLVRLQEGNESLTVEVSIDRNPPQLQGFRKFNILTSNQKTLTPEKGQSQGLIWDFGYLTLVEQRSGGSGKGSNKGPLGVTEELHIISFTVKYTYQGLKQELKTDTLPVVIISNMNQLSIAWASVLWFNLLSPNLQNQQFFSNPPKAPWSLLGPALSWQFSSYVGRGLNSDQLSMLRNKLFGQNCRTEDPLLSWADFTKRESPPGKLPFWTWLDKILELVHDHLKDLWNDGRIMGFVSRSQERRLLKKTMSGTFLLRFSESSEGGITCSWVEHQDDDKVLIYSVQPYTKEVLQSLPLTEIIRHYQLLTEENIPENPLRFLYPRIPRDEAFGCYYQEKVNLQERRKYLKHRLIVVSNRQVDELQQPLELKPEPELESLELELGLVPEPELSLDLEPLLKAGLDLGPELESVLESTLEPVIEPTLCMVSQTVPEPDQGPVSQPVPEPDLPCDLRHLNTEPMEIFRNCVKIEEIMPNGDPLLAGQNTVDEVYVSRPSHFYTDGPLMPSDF

Binder: B1
- Pearson correlation coefficient rP (co-localization) [1]: 0.97

Binder: B2
- Pearson correlation coefficient rP (co-localization) [2]: ≥ 0.94

Binder: B3
- Pearson correlation coefficient rP (co-localization) [2]: ≥ 0.94
- Pearson correlation coefficient rP (co-localization) [3]: 0.97

Binder: B4
- Pearson correlation coefficient rP (co-localization) [2]: ≥ 0.94
